Reference: patent US20240392013A1 (STELEXIS THERAPEUTICS, published 2024)
Numbering of substitutions follows the chain as printed.

T1: recombinant human IL1RAP protein, extracellular domain His-tagged (Sino Biological, Cat #10121-H08H) (human, UniProt Q9NPH3 21-367)
T1 construct: extracellular domain; Bought protein; The Octet analyte is printed as huIL1RAP-His (Sino Biological, lot MB08MA1301) without a catalogue number; also called huIL1RAP-His; hIL1RAP; not shown: His tag
T1 sequence (looked up): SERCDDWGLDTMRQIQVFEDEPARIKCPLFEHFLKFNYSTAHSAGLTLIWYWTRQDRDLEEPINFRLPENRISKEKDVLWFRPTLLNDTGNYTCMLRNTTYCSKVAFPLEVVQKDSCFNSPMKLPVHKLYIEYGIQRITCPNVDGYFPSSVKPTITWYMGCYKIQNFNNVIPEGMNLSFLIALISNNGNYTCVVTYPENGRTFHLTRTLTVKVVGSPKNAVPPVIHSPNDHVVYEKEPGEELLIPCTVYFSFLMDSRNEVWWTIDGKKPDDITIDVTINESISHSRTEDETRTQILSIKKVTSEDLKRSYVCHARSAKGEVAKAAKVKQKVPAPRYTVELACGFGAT

T2: IL1RAP on HEK-Blue IL1β / HEK-Blue IL33 reporter cells (UniProt Q9NPH3 21-570, limits assumed)
T2 sequence (looked up): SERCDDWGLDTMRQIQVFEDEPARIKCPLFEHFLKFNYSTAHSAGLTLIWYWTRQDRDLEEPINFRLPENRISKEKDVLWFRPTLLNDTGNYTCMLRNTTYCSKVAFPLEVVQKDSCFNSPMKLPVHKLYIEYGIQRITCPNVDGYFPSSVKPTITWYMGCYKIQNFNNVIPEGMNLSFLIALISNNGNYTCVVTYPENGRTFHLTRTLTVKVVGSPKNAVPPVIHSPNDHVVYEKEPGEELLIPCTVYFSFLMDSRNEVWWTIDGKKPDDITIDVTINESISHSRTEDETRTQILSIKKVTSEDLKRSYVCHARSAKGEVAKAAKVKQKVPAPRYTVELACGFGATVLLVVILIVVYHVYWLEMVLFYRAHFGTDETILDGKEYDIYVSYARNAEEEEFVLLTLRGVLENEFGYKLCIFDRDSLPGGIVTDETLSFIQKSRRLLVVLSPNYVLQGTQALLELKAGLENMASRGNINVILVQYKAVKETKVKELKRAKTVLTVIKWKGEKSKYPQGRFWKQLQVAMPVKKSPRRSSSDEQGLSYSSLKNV

T3: cyIL1RAP-His (Lake Pharma) (cynomolgus monkey, UniProt A0A2K5X5J5 21-367)
T3 construct: Bought protein (Lake Pharma, lot 16205819371); also called cynomolgus IL1RAP; monkey IL1RAP; not shown: His tag
T3 sequence: T1 sequence (looked up) with L183F, T273P, K326T

T4: recombinant mouse IL1RAP protein (Sino Biological, Cat #52657-M08H) (mouse, UniProt Q61730 21-359)
T4 construct: Bought protein
T4 sequence (looked up): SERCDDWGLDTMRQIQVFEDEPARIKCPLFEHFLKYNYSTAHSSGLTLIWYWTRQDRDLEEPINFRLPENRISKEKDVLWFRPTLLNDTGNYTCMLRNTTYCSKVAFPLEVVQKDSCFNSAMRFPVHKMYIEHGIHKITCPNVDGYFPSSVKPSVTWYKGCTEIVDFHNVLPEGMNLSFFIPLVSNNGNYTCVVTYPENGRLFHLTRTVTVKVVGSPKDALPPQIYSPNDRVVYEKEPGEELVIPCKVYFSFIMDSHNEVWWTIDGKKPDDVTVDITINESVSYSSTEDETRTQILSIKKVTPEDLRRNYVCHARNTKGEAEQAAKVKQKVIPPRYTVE

B1: STLX2001N (antibody, V domains shown)
VH: EVQLVQSGAEVKKPGESLKISCKGSGYSFTSYWIVWVRQMPGKGLEWMGFIYPGNSDTRYSPSFQGQVTISADQSISTAYLQWSSLKASDTATYYCARGGSYYLDYWGQGTLVTVSS
VL: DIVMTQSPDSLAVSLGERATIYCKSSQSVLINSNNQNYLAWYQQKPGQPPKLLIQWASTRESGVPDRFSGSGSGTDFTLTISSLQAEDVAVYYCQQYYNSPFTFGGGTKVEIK
notes: Purified from hybridoma of immunized Alivamab mice; intact IgG; captured on anti-mouse IgG Fc sensors in Octet; kappa light chain; also called 74804_01N02A
B2: STLX2045 (antibody, V domains shown)
VH: EVQLVESGGGLVKPGGSLRLACAATGFTFSNVWMSWVRQGSGKGLEWVGRIKSKADGGTIDYAAPVKGRFTISRDDSKNTLYLQMNSLKTEDTAMYYCTTGELLGFDYWGQGTLVTVSS
VL: DIVMTQSPLSLPVTPGEPASISCRSGQSLLHSNGFNCLAWYLQKPGQSPQLLIYLGSNRASGVPDRFSGSGSGTDFTLKISRVEAEDVGVYYCMQTLQTPITFGQGTRLEIK
notes: Purified from hybridoma of immunized Alivamab mice; intact IgG; captured on anti-mouse IgG Fc sensors in Octet; kappa light chain; also called 74804_45C18A
B3: STLX2016 (antibody, V domains shown)
VH: QVQLQESGPGLVKPSETLSLTCTVSGGSISSYFWNWIRQPPGKGLEWIGYGHYSGNSNHNPSLKSRVTISVDMSKNQFSLKMSSVTAADTAMYYCAREGLHDAFDIWGQGTMVTVSS
VL: not shown
notes: Purified from hybridoma of immunized Alivamab mice; intact IgG; captured on anti-mouse IgG Fc sensors in Octet; lambda light chain; also called 74804_16M09A
B4: STLX2030 (antibody, V domains shown)
VH: QVQLVQSGAEVKRPGASVKVSCKASGYTFTGYYMHWVRQAPGQGLEWMGWINPYSGGTDYAQKFQDRVTMTRDTSISTAYMELSRLRSDDTAVYYCARSYYYYGMDVWGQGITVTVSS
VL: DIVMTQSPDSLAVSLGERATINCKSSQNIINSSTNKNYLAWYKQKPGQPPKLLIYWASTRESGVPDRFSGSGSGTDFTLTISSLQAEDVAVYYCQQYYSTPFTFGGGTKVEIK
notes: Purified from hybridoma of immunized Alivamab mice; intact IgG; captured on anti-mouse IgG Fc sensors in Octet; kappa light chain; also called 74804_30O16A
B5: STLX2044 (antibody, V domains shown)
VH: QVQLQESGPGLVKPSETLSLTCTVSGGSVFSYFWNWIRQPPVKGLEWIGYIDHSGGTNYNPSLKSRVTMSVDTSKNQFSLKLSSVTAADTAVYYCAREGLHDAFDIWGQGTLVTVSS
VL: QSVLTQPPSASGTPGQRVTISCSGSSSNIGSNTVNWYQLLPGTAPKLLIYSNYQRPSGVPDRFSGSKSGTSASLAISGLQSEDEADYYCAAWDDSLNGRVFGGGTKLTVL
notes: Purified from hybridoma of immunized Alivamab mice; intact IgG; captured on anti-mouse IgG Fc sensors in Octet; lambda light chain; also called 74804_44J14A
B6: STLX2027 (antibody, V domains shown)
VH: EVQLVESGGGLVKPGGSLRLSCAASGFTFITYSMNWVRQAPGKGLEWVSSISSISSYIYYADSVKGRFTISRDNAKNSLYLQMDSLRAEDSAVYYCAREGIVGPTGYFDSWGQGTLVTVSS
VL: QSVLTQPPSVSAAPGQKVTISCSGSSSNIGNHYVSWYQQLPGTAPKLLIYDNNKRPSGIPDRFSGSKSGTSATLGITGLQTGDEADYYCGTWDSRLSAYWVFGGGTKLTVL
notes: Purified from hybridoma of immunized Alivamab mice; intact IgG; captured on anti-mouse IgG Fc sensors in Octet; lambda light chain; also called 74804_27I24A
B7: STLX2021 (antibody, V domains shown)
VH: EVQVVESGGGLVKPGGSLRLSCAASGFIFSKAWMSWVRQAPGKGLEWVGRIKSKTDGGTTDYAAPVKGRFTISRDDSKNTLYLQMNSLKTEDTAVYYCTTGGYVFDYWGQGALVTVSS
VL: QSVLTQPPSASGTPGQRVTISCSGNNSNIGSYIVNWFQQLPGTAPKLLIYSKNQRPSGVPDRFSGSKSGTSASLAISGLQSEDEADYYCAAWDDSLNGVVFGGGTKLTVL
notes: Purified from hybridoma of immunized Alivamab mice; intact IgG; captured on anti-mouse IgG Fc sensors in Octet; lambda light chain; also called 74804_21D11A

Target: T1, recombinant human IL1RAP protein, …
Assay: Octet BLI; mAb captured on anti-mouse IgG Fc sensor; huIL1RAP-His analyte
Method: (§1) Antibodies were diluted in kinetics buffer (0.1% BSA, 0.02% Tween-20 and 0.05% NaN₃ in PBS) and loaded onto 16 channel anti-mouse IgG Fc capture sensors (AMC, Cat #2001073; Sartorius, Göttingen, Germany). Human, huIL1RAP-His (Sino Biological, lot: MB08MA1301), and monkey, cyIL1RAP-His (Lake Pharma, NY, USA; lot:16205819371) proteins were titrated starting from the highest concentration of 100 nM and followed by 50 nM and 25 nM. Purified antibodies were loaded at 5 μg/ml in kinetics buffer. The experimental parameters selected to determine the kinetic constants were Baseline for 60 s, Loading of antibody to sensor for 180 s, Association of analyte to antibody for 120 s, Dissociation for 1200 s and Regeneration in 10 mM Glycine pH 1.7 for 4×30 s.
(§2) Regeneration cycle tracking was selected for 12 cycles. Binding to human and cynomolgus IL1RAP was measured and KD (M) kinetics were calculated. Also, the disassociation rate (Kdis) (1/s) and association rate (Kon) (1/Ms) kinetics were calculated (data not shown).

Binder	Kd	Response	koff	kon
B1	0.803 nM	0.308	0.000233 s⁻¹	290000 M⁻¹ s⁻¹
B2	0.648 nM	0.261	0.000273 s⁻¹	422000 M⁻¹ s⁻¹
B3	0.834 nM	0.257	0.000411 s⁻¹	493000 M⁻¹ s⁻¹
B4	2.24 nM	0.153	0.000359 s⁻¹	160000 M⁻¹ s⁻¹
B5	1.23 nM	0.268	0.000684 s⁻¹	558000 M⁻¹ s⁻¹
B6	2.13 nM	0.229	0.000747 s⁻¹	350000 M⁻¹ s⁻¹
B7	2.19 nM	0.249	0.000478 s⁻¹	218000 M⁻¹ s⁻¹

Target: T2, IL1RAP on HEK-Blue IL1β / HEK-Blue IL33 …
Assay: cell-based or functional assay

Binder	IC50, HEK-BlueIL1β NFκB Reporter Assay	Max % Inhibition at 200 nM, HEK-BlueIL1β NFκB Reporter Assay
B1	1.72e-09 M (implied; unit not printed)	101%
B2	1.93e-10 M (implied; unit not printed)	100%
B3	8.05e-10 M (implied; unit not printed)	100%
B4	2.31e-09 M (implied; unit not printed)	98%
B5	7.92e-10 M (implied; unit not printed)	98%
B6	1.96e-09 M (implied; unit not printed)	100%
B7	5.32e-10 M (implied; unit not printed)	101%

Target: T3, cyIL1RAP-His (Lake Pharma)
Assay: Octet BLI; mAb captured on anti-mouse IgG Fc sensor; cyIL1RAP-His analyte
Method: as §1, §2

Binder	Kd	Response	koff	kon
B1	1.23 nM	0.342	0.000413 s⁻¹	334000 M⁻¹ s⁻¹
B2	0.863 nM	0.277	0.000291 s⁻¹	338000 M⁻¹ s⁻¹
B3	3.94 nM	0.199	0.004 s⁻¹	1.01e+06 M⁻¹ s⁻¹
B4	2.59 nM	0.169	0.000369 s⁻¹	143000 M⁻¹ s⁻¹
B5	1.68 nM	0.223	0.00206 s⁻¹	1.23e+06 M⁻¹ s⁻¹
B6	2.82 nM	0.242	0.00107 s⁻¹	380000 M⁻¹ s⁻¹
B7	10.2 nM	0.232	0.00259 s⁻¹	254000 M⁻¹ s⁻¹

Target: T2, IL1RAP on HEK-Blue IL1β / HEK-Blue IL33 …
Assay: cell-based or functional assay
Remark: another data set of the same source

Binder	IC50, HEK-BlueIL33 NFκB Reporter Assay	Max % Inhibition at 200 nM, HEK-BlueIL33 NFκB Reporter Assay
B1	1.7e-08 M (implied; unit not printed)	87%
B2	1.37e-09 M (implied; unit not printed)	98%
B3	7.66e-09 M (implied; unit not printed)	76%
B4	1.24e-08 M (implied; unit not printed)	76%
B5	8.12e-09 M (implied; unit not printed)	73%
B6	8.31e-09 M (implied; unit not printed)	86%
B7	3.54e-09 M (implied; unit not printed)	85%

Target: T4, recombinant mouse IL1RAP protein (Sino …)
Assay: cell-free ELISA, mouse IL1RAP coated; data not shown
Method: Recombinant human or mouse IL1RAP proteins (Sino Biological, Beijing, China; Cat #10121-H08H and Sino Biological, Cat #52657-M08H respectively) were diluted in PBS, pH 7.4 at concentration of 1 μg/ml, coated on high-binding 384-well clear plates and incubated overnight at 4° C. Following, plates were washed 3× with 0.05% Tween-20 in PBS, pH 7.5 and then blocked with 1% BSA in PBS for 1 hour at room temperature. After 3× washes, wells were incubated with each antibody at the highest concentration of 100 nM followed by seven serial half log dilutions (in 1% BSA and 0.05% Tween-20 in PBS) for 1 hour at room temperature. Plates were then washed 3× and incubated with […] detection antibody (Medna, TX, USA; Cat #D8212, 0.5 μg/ml diluted in 0.02% Tween-20 in PBS). After 5× washes, Supersignal ELISA Pico substrate (Thermofisher, MA, USA; Cat #37069) was applied to wells and chemiluminescent signal was read on Sprectramax L for 200 ms/well. Similarly, detection with specific κ and λ antibodies was conducted to define light chain isotyping.

Binder	binding result
B1	no binding (tested: 100 nM)
B2	no binding (tested: 100 nM)
B3	no binding (tested: 100 nM)
B4	no binding (tested: 100 nM)
B5	no binding (tested: 100 nM)
B6	no binding (tested: 100 nM)
B7	no binding (tested: 100 nM)
